Reference: patent publication US20200270586A1

Target: LgTrip 3546 (with His tag; SEQ ID NO: 51)
Assay: luminescence complementation
Conditions: modification not given

Chain of LgTrip 3546 (with His tag; SEQ ID NO: 51) (chain, as listed by the source): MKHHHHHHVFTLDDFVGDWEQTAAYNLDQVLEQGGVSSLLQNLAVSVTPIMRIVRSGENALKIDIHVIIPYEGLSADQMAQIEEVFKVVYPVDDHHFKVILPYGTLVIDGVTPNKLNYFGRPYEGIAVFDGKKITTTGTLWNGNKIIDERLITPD

Binder | Kd
DKMLFKVTIGKWK [748] | 440 nM
GKMKFRVTIESWK [717] | 1140 nM
GSMLFRVTINSYK [619] | 1510 nM
EKMLFRVTIGRWK [709] | 180 nM
EKMLFTVTIEKWK [720] | 360 nM
GKMLFRVNINSWK [613] | 5250 nM
EKMLFTVTIGKWK [710] | 1290 nM
DKMLFRVTIGKWK [739] | 200 nM
DKLLFKVTIEKYK [755] | 1450 nM
GKMKFRVTIRSWK [719] | 370 nM
KQMLFRVTINSWK [654] | 60 nM
EKLLFTVTIGKWK [711] | 500 nM
ELMLFRVTINSWK [655] | 15900 nM
DQMLFRVTINSWK [658] | 4380 nM
DKLLFKVTIEKWK [754] | 750 nM
GKMLFRVSINSWK [614] | 2580 nM
GKMLFRVTINRWK [701] | 120 nM
EKMLFTVTIGRWK [712] | 370 nM
GKMLFRVTISKWK [670] | 30 nM
GKMSFRVTINSWK [616] | 1230 nM
GKMLFRVTITKWK [672] | 10 nM
EQMLFRVTINSWK [656] | 6260 nM
RQMLFRVTINSWK [652] | 30 nM
DKLLFKVTIQKYK [747] | 100 nM
RLMLFRVTIGKWK [676] | 20 nM
DKLLFKVTIQKWK [746] | 1100 nM
DKMLFKVTIQKWK [744] | 1130 nM
EKLLFRVTIGKYK [726] | 640 nM
DKLLFKVTIGKYK [751] | 610 nM
GKMWFRVTINSWK [617] | 320 nM
